Experiments:
[1] = target: CCR4a, full length (human) (human) (UniProt Q9ULM6); assay: co-purification (metal affinity, SEC, anion exchange); CCR4a and CAF1 co-expressed in E. coli; nickel IMAC, tags cleaved by TEV, Superdex 200 in 10 mM HEPES/NaOH pH 7.5, 300 mM NaCl, 2 mM DTT, then Source 15Q
[2] = target: NOT1:NOT2:NOT3:CAF40 subcomplex (full-length subunits) (human) (UniProt A5YKK6); assay: SEC-MALS; reconstituted CCR4-NOT FULL, 40 ul at 0.9 mg/ml, Superose 6 5/150 in 10 mM HEPES/NaOH pH 7.5, 200 mM NaCl; SDS-PAGE with Coomassie staining of the complex
NOT1:NOT2:NOT3:CAF40 subcomplex (full-length subunits) (human), sequence (A5YKK6 whole entry, chain 1 of 4): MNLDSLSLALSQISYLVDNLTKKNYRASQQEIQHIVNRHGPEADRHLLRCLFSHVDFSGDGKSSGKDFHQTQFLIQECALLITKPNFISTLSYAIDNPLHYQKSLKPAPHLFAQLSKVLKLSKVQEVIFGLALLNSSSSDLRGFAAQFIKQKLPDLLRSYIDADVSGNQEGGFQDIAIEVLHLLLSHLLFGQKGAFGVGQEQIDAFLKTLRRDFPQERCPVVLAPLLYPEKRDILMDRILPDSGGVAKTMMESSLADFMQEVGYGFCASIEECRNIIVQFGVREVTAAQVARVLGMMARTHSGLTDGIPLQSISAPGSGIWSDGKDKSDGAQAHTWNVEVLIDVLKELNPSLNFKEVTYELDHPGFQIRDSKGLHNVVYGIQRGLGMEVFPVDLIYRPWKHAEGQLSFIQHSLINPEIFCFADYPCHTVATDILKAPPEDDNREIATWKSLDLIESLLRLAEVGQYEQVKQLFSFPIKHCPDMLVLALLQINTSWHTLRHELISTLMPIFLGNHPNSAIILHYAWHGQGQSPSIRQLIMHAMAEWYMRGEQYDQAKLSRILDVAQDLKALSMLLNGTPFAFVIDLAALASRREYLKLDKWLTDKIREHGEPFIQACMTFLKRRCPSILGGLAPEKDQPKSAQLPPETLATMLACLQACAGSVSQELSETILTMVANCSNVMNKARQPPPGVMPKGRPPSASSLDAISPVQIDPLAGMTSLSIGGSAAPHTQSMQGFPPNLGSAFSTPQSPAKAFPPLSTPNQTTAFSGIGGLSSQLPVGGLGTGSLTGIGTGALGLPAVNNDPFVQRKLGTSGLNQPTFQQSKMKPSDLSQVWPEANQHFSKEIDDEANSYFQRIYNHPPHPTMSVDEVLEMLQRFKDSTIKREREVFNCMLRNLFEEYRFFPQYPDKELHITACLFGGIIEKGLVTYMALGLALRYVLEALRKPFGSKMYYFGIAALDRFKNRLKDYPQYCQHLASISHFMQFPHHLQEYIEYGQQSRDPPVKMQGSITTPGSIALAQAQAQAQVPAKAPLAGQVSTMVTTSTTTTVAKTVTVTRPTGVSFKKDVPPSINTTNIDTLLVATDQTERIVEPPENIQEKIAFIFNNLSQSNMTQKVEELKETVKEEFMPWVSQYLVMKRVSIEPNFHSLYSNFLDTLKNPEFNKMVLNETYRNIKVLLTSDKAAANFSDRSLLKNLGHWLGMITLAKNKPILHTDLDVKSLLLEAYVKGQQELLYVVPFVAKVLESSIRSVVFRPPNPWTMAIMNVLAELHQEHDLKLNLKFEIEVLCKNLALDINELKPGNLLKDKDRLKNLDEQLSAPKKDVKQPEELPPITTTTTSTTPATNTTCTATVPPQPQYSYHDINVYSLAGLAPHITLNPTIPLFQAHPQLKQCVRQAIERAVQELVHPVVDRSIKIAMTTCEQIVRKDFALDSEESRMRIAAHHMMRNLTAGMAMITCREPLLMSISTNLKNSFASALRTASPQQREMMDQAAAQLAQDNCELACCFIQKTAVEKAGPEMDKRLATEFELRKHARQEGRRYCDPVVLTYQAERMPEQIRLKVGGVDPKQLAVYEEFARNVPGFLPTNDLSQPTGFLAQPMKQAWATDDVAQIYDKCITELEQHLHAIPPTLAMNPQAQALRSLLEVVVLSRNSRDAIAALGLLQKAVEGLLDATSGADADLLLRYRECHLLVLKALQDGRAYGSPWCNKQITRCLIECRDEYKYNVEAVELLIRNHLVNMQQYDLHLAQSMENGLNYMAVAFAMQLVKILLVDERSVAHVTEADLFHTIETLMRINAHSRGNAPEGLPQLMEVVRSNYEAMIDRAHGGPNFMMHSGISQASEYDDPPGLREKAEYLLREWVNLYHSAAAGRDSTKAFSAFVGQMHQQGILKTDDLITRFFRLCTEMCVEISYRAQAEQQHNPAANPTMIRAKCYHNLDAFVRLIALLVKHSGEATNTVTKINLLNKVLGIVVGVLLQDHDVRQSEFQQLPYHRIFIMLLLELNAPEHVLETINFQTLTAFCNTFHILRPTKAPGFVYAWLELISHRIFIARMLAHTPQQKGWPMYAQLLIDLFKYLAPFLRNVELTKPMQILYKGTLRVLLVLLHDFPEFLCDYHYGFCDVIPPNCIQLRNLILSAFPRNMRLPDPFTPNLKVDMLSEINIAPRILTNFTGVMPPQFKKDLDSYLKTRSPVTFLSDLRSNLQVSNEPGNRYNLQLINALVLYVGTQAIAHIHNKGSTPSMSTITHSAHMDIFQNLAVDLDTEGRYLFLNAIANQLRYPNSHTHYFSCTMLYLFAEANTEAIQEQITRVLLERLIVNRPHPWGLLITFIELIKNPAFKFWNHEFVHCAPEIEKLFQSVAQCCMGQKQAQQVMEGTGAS
NOT1:NOT2:NOT3:CAF40 subcomplex (full-length subunits) (human), sequence (Q9NZN8 whole entry, chain 2 of 4, further chain): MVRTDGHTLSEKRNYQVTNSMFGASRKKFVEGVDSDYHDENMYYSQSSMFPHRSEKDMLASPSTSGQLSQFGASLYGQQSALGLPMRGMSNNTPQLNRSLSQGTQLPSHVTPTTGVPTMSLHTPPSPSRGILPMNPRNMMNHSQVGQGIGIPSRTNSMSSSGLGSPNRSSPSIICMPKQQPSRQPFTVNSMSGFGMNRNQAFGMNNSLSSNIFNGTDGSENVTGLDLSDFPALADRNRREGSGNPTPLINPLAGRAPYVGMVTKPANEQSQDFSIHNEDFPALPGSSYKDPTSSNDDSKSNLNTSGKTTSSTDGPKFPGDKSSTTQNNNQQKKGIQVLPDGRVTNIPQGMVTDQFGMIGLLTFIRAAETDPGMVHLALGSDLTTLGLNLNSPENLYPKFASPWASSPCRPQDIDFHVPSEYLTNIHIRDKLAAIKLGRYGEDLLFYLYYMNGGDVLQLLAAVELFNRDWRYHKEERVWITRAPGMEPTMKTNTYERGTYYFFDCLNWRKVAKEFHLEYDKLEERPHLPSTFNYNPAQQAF
NOT1:NOT2:NOT3:CAF40 subcomplex (full-length subunits) (human), sequence (O75175 whole entry, chain 3 of 4, further chain): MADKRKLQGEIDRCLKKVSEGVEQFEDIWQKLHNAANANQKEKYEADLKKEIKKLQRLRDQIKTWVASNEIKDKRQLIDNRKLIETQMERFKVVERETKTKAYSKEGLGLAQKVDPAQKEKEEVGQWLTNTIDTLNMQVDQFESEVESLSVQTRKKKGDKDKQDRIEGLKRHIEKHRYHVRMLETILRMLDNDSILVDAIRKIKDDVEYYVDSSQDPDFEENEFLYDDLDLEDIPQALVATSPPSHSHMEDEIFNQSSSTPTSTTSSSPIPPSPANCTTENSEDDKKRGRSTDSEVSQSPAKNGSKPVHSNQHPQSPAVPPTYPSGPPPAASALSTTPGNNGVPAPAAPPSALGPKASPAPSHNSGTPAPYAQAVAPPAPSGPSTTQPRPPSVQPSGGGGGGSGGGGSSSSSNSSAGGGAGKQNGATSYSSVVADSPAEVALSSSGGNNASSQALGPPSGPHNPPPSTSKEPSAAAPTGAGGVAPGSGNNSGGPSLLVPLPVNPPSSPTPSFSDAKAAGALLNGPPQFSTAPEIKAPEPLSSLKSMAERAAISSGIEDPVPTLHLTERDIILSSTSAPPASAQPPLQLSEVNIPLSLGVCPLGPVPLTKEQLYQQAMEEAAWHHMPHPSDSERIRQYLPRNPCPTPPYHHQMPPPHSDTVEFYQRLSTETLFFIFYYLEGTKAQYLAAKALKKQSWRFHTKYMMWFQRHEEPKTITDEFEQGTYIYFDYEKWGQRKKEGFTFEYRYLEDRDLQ
NOT1:NOT2:NOT3:CAF40 subcomplex (full-length subunits) (human), sequence (Q92600 whole entry, chain 4 of 4, further chain): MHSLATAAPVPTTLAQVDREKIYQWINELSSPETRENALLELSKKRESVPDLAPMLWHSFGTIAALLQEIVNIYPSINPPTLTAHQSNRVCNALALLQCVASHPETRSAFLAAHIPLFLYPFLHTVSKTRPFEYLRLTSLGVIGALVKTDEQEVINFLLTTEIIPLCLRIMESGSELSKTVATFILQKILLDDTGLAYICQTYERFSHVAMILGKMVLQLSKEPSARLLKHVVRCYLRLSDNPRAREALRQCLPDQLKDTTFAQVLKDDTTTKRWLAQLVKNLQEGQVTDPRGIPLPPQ

CCR4a, full length (human) (human), sequence (Q9ULM6 whole entry): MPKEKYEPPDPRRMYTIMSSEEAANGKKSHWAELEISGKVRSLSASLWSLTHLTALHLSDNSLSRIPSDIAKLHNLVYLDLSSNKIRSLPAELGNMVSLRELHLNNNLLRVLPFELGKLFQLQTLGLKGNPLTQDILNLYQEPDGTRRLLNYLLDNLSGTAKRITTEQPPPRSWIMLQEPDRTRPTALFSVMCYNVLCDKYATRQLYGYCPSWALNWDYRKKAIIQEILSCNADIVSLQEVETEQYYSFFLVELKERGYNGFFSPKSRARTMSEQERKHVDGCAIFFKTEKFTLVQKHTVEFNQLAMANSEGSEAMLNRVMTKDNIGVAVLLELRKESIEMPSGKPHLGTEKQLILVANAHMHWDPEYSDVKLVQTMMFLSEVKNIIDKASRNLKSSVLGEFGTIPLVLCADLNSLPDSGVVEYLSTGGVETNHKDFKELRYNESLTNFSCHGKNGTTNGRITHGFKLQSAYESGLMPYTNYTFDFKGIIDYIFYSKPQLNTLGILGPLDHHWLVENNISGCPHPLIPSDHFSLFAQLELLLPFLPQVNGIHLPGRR
CAF1, full length (human), sequence (Q9UIV1 whole entry): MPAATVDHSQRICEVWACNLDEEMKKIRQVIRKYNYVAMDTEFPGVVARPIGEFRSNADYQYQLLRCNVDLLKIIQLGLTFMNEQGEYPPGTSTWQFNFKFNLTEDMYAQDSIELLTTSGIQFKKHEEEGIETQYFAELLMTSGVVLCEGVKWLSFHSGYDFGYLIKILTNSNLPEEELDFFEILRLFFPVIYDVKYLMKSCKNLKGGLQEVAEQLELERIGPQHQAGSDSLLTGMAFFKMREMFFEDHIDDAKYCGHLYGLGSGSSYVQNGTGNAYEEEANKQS

CAF1, full length (human) (from UniProt Q9UIV1 1-285) (enzyme)
stoichiometry N [1]: 1

CCR4a:CAF1 exonuclease heterodimer (wild type) (from UniProt Q9ULM6 1-557; Q9UIV1 1-285) (complex)
stoichiometry N [2]: 1

From PMC6639331
